B1: WT-BslA truncated, BslA42-181 (other)
chain: MRTQSTASLFATITGASKTEWSFSDIELTYRPNTLLSLGVMEFTLPSGFTANTKDTLNGNALRTTQILNNGKTVRVPLALDLLGAGEFKLKLNNKTLPAAGTYTFRAENKSLSIGNKFYAEASIDVAKRSTPPTQPCGCN
notes: In solution it is a mix of monomers and disulfide-linked dimers; also called wild-type biofilm-surface layer protein A; YuaB
B2: BslA-L77K truncated (other)
chain: MRTQSTASLFATITGASKTEWSFSDIELTYRPNTLKSLGVMEFTLPSGFTANTKDTLNGNALRTTQILNNGKTVRVPLALDLLGAGEFKLKLNNKTLPAAGTYTFRAENKSLSIGNKFYAEASIDVAKRSTPPTQPCGCN
notes: also called L77K BslA; L77K-BslA

Columns and labels:
[1] = target: the molecule itself; test: size-exclusion chromatography with multiangle light scattering (self-association in solution, disulfide-linked dimers)
[2] = target: the molecule itself; test: TEM, uranyl acetate stain (self-assembly into a 2D lattice)
Description: Multiple domains of the WT-BslA lattice could be observed in any location on the grid. The observed domain areas varied from as small as 1000 nm² (˜50 BslA molecules) up to 200000 nm² (>10000 BslA molecules). Less ordered “inter-domain” areas were also observed. […] The largest BslA-L77K domain size observed was approximately […] (1250 BslA molecules).

Row | Protein | binding result [1] | binding result [2]
1 | B1 | binds | –
2 | B2 | – | binds

— patent US20170267730A1 (UNIVERSITY COURT OF THE UNIVERSITY OF EDINBURGH, published 2017)
